Experimental data published in article PMC8024308, “Epitope-directed monoclonal antibody production using a mixed antigen cocktail facilitates antibody characterization and validation” (Communications Biology, 2021).

Target: the molecule itself
Test: ELISA; two-site sandwich ELISA with the same mAb (30D12 or 4F2) as coated capture (5 ug/ml) and as biotinylated detector (1 ug/ml); recombinant hANKRD1 at 20 ng/ml; self-pairing read as dimer

B1: recombinant human ankyrin repeat domain 1 (hANKRD1; OriGene Technologies) (natural protein)
chain: not shown
notes: human ankyrin repeat domain 1 (ANKRD1), full-length recombinant protein, N-terminal His-tagged, OriGene Technologies; expected mass 43 kDa; The preparation holds monomer (43 kDa) and dimer (86 kDa) on non-reducing SDS-PAGE; also called recombinant hANKRD1; source: bought: OriGene Technologies (bacterially derived recombinant preparation)
B1: binds.
